# Literature values, collected in publication PMC4459106.
# Biological target: KIM15-31 (HePTP) 15-31 (Homo sapiens) (UniProt P35236)
substance,measurement,value
ppERK2 (from UniProt P63086),Kd,1.3 µM
